Measurements from the supplement of paper PMC9112550, “Optimization of the antimicrobial peptide Bac7 by deep mutational scanning” (BMC Biology, 2022).

Tested on: Escherichia coli TOP10
Experiment: shrunken log2 fold change of peptide-encoding DNA abundance (4.5 h post-induction vs induction); higher = less antimicrobial activity (less host growth inhibition)
Conditions: time post-induction: 4.5 h; library: site-saturation at positions 5, 18, 19, 20
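Further: peptides expressed intracellularly from a pBAD plasmid library in pooled LB shake-flask culture, induced with 0.3% L-arabinose, DNA abundance read by NGS, three biological replicates, DESeq2 with apeglm shrinkage.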

| Sequence | shrunken log2 fold change |
| --- | --- |
| RRIRGRPPRLPRPRPRPAGVPRP | 0.742 |
| RRIRDRPPRLPRPRPRPYWMPRP | -0.541 |
| RRIRMRPPRLPRPRPRPRNEPRP | 0.471 |
| RRIRDRPPRLPRPRPRPHPAPRP | 0.145 |
| RRIRIRPPRLPRPRPRPWHKPRP | -0.00213 |
| RRIRVRPPRLPRPRPRPSRWPRP | 0.278 |
| RRIRLRPPRLPRPRPRPMIEPRP | -0.00289 |
| RRIRARPPRLPRPRPRPNHWPRP | 0.0522 |
| RRIRLRPPRLPRPRPRPVCPPRP | 0.149 |
| RRIRVRPPRLPRPRPRPFCGPRP | -0.0559 |
| RRIRKRPPRLPRPRPRPTERPRP | 0.306 |
| RRIRLRPPRLPRPRPRPLQQPRP | 0.0442 |
| RRIRIRPPRLPRPRPRPDMFPRP | -0.17 |
| RRIRQRPPRLPRPRPRPNDEPRP | 0.0763 |
| RRIRPRPPRLPRPRPRPSSEPRP | 0.174 |
| RRIRERPPRLPRPRPRPFENPRP | -0.01 |
| RRIRQRPPRLPRPRPRPHDNPRP | 1.99 |
| RRIRERPPRLPRPRPRPARQPRP | 0.0428 |
| RRIRERPPRLPRPRPRPEIVPRP | 0.00903 |
| RRIRIRPPRLPRPRPRPTKFPRP | -0.164 |
| RRIRHRPPRLPRPRPRPRSFPRP | -0.0488 |
| RRIRERPPRLPRPRPRPHHCPRP | -0.0231 |
| RRIRSRPPRLPRPRPRPCKFPRP | -0.301 |
| RRIRMRPPRLPRPRPRPDAVPRP | 3.73 |
| RRIRNRPPRLPRPRPRPHWQPRP | -0.115 |

| Sequence | shrunken log2 fold change |
| --- | --- |
| RRIRIRPPRLPRPRPRPVFVPRP | -0.397 |
| RRIRMRPPRLPRPRPRPRTSPRP | 0.623 |
| RRIRMRPPRLPRPRPRPMHDPRP | 0.192 |
| RRIRERPPRLPRPRPRPQSRPRP | 0.00145 |
| RRIRPRPPRLPRPRPRPIKMPRP | 0.0328 |
| RRIRFRPPRLPRPRPRPKALPRP | 0.191 |
| RRIRRRPPRLPRPRPRPQFGPRP | -0.00169 |
| RRIRLRPPRLPRPRPRPDPWPRP | 0.0779 |
| RRIRQRPPRLPRPRPRPANEPRP | -0.104 |
| RRIRKRPPRLPRPRPRPYFNPRP | -0.593 |
| RRIRGRPPRLPRPRPRPNLYPRP | 0.0462 |
| RRIRTRPPRLPRPRPRPQPCPRP | -0.0212 |
| RRIRFRPPRLPRPRPRPPCQPRP | 3.46 |
| RRIRGRPPRLPRPRPRPEVEPRP | 2.03 |
| RRIRGRPPRLPRPRPRPLYTPRP | 0.145 |
| RRIRSRPPRLPRPRPRPAAEPRP | 0.466 |
| RRIRHRPPRLPRPRPRPSIDPRP | -0.617 |
| RRIRYRPPRLPRPRPRPPPIPRP | 0.0596 |
| RRIRRRPPRLPRPRPRPSFWPRP | 0.38 |
| RRIRTRPPRLPRPRPRPYFHPRP | -0.909 |
| RRIRMRPPRLPRPRPRPIMWPRP | -0.042 |
| RRIRKRPPRLPRPRPRPEDNPRP | 0.749 |
| RRIRSRPPRLPRPRPRPMMMPRP | -0.83 |
| RRIRFRPPRLPRPRPRPFMFPRP | -0.739 |
| RRIRNRPPRLPRPRPRPNRWPRP | 0.105 |

| Sequence | shrunken log2 fold change |
| --- | --- |
| RRIRPRPPRLPRPRPRPWDSPRP | -0.456 |
| RRIRARPPRLPRPRPRPNMNPRP | -0.212 |
| RRIRFRPPRLPRPRPRPLEFPRP | -0.0464 |
| RRIRVRPPRLPRPRPRPVRHPRP | 0.0933 |
| RRIRWRPPRLPRPRPRPITYPRP | -0.828 |
| RRIRIRPPRLPRPRPRPSYDPRP | -0.414 |
| RRIRERPPRLPRPRPRPMHMPRP | -0.000687 |
| RRIRTRPPRLPRPRPRPFTAPRP | -0.473 |
| RRIRIRPPRLPRPRPRPWCCPRP | -0.481 |
| RRIRFRPPRLPRPRPRPHLAPRP | -0.0213 |
| RRIRLRPPRLPRPRPRPDYWPRP | -0.596 |
| RRIRVRPPRLPRPRPRPWGWPRP | 0.331 |
| RRIRERPPRLPRPRPRPIEIPRP | -0.186 |
| RRIRYRPPRLPRPRPRPTQFPRP | -0.558 |
| RRIRDRPPRLPRPRPRPKLQPRP | 0.08 |
| RRIRRRPPRLPRPRPRPVAGPRP | 0.453 |
| RRIRKRPPRLPRPRPRPVQQPRP | 0.368 |
| RRIRYRPPRLPRPRPRPTRIPRP | -0.0491 |
| RRIRKRPPRLPRPRPRPPNIPRP | -1.03 |
| RRIRGRPPRLPRPRPRPGIMPRP | 0.374 |
| RRIRQRPPRLPRPRPRPHPMPRP | -0.185 |
| RRIRNRPPRLPRPRPRPYLWPRP | -0.23 |
| RRIRKRPPRLPRPRPRPNKGPRP | 0.0232 |
| RRIRLRPPRLPRPRPRPSCYPRP | -0.164 |
| RRIRIRPPRLPRPRPRPIKLPRP | -0.289 |

| Sequence | shrunken log2 fold change |
| --- | --- |
| RRIRLRPPRLPRPRPRPLGSPRP | -0.00618 |
| RRIRHRPPRLPRPRPRPACLPRP | -0.221 |
| RRIRRRPPRLPRPRPRPIPVPRP | 0.265 |
| RRIRWRPPRLPRPRPRPRDTPRP | 0.11 |
| RRIRHRPPRLPRPRPRPRCAPRP | 0.189 |
| RRIRHRPPRLPRPRPRPQDFPRP | 0.0261 |
| RRIRVRPPRLPRPRPRPCGCPRP | 0.0165 |
| RRIRNRPPRLPRPRPRPWPNPRP | -0.063 |
| RRIRHRPPRLPRPRPRPRMKPRP | -0.223 |
| RRIRVRPPRLPRPRPRPMIQPRP | -0.403 |
| RRIRTRPPRLPRPRPRPRHEPRP | -0.13 |
| RRIRIRPPRLPRPRPRPDQIPRP | -0.0795 |
| RRIRERPPRLPRPRPRPISTPRP | -0.346 |
| RRIRGRPPRLPRPRPRPPCQPRP | 0.283 |
| RRIRDRPPRLPRPRPRPHQSPRP | 0.0679 |
| RRIRGRPPRLPRPRPRPSTEPRP | 1.14 |
| RRIRQRPPRLPRPRPRPTIAPRP | 0.0737 |
| RRIRWRPPRLPRPRPRPDYMPRP | -0.0885 |
| RRIRRRPPRLPRPRPRPCHAPRP | -0.0577 |
| RRIRQRPPRLPRPRPRPPEDPRP | 0.0255 |
| RRIRKRPPRLPRPRPRPNRDPRP | 0.169 |
| RRIRRRPPRLPRPRPRPVHDPRP | -0.305 |
| RRIRMRPPRLPRPRPRPLKWPRP | 0.196 |
| RRIRCRPPRLPRPRPRPSHHPRP | -0.603 |
| RRIRCRPPRLPRPRPRPEFVPRP | 0.105 |

| Sequence | shrunken log2 fold change |
| --- | --- |
| RRIRLRPPRLPRPRPRPDSVPRP | 0.0031 |
| RRIRARPPRLPRPRPRPKAYPRP | 0.088 |
| RRIRQRPPRLPRPRPRPDDIPRP | -0.0246 |
| RRIRMRPPRLPRPRPRPDFMPRP | -0.0119 |
| RRIRMRPPRLPRPRPRPVPTPRP | 0.5 |
| RRIRTRPPRLPRPRPRPEHSPRP | -0.237 |
| RRIRWRPPRLPRPRPRPWMKPRP | -0.225 |
| RRIRERPPRLPRPRPRPNMQPRP | -0.664 |
| RRIRCRPPRLPRPRPRPFGDPRP | -0.00748 |
| RRIRSRPPRLPRPRPRPCFQPRP | -0.0966 |
| RRIRWRPPRLPRPRPRPSDIPRP | -0.031 |
| RRIRQRPPRLPRPRPRPKIIPRP | -0.367 |
| RRIRGRPPRLPRPRPRPDCRPRP | 0.68 |
| RRIRNRPPRLPRPRPRPAGEPRP | 0.507 |
| RRIRTRPPRLPRPRPRPLLCPRP | -0.413 |
| RRIRVRPPRLPRPRPRPPHCPRP | 0.178 |
| RRIRRRPPRLPRPRPRPGLMPRP | 0.342 |
| RRIRCRPPRLPRPRPRPMYTPRP | -0.551 |
| RRIRKRPPRLPRPRPRPKNTPRP | -0.0285 |
| RRIRLRPPRLPRPRPRPLMKPRP | 0.0215 |
| RRIRMRPPRLPRPRPRPDLGPRP | 0.11 |
| RRIRQRPPRLPRPRPRPCMAPRP | -0.117 |
| RRIRTRPPRLPRPRPRPQFHPRP | -0.541 |
| RRIRQRPPRLPRPRPRPAHDPRP | -0.161 |
| RRIRMRPPRLPRPRPRPFRPPRP | -0.16 |
